Results: patent US20200317768A1 (published 2020)

T1: human FcγRIIaH extracellular domain, C-terminal His-tag (human, UniProt P12318 34-217)
T1 construct: also called human FcγRIIa (type H); FcgRIIaH; not shown: His-tag added to C-terminus
T1 sequence: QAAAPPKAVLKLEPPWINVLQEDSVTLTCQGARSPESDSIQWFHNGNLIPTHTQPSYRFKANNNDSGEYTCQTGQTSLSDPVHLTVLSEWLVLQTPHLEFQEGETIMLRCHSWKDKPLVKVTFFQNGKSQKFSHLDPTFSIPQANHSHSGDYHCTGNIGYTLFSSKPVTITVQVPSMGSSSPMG


Columns and labels:
[1] = target: T2, cynomolgus monkey FcγRIIIaS extracellular domain, C-terminal His-tag (cynomolgus monkey, UniProt A3RFZ7 21-206 (rhesus entry)); experiment: SPR (Biacore), antibody captured, FcgR analyte, 25 C
T2 construct: also called cyno FcγRIIIaS; cynoFcγRIIIaS; not shown: His-tag added to C-terminus
T2 sequence (A3RFZ7 21-206): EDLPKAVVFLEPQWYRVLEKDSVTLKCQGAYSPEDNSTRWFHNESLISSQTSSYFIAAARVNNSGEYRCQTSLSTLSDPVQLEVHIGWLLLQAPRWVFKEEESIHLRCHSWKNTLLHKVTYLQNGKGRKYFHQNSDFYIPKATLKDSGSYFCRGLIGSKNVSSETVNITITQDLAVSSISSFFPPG

[2] = target: T1, human FcγRIIaH extracellular domain, …; experiment: as above

Binder | Kd [1] | Kd [2]
MS_M103205H795-SG1/M103202L889-SK1 (antibody, human IgG1, kappa, Parent antibody; also called MS1032LO06-SG1) heavy: not shown light: DIVMTQSPATLSLSPGERATLSCTSSQSVYHANWLSWFQQKPGQPPKLLIYWASTLAYGVPSRFSGSGSGTDFTLTISSLQPEDAATYYCAGGYGGGRYAFGQGTKVEIKRTVAAPSVFIFPPSDEQLKSGTASVVCLLNNFYPREAKVQWKVDNALQSGNSQESVTEQDSKDSTYSLSSTLTLSKADYEKHKVYACEVTHQGLSSPVTKSFNRGEC | 0.36 µM | 0.69 µM
M103205H795-MY229/M103202L889-SK1 (antibody, human IgG1, kappa) heavy: QVTLKESGPVLVKPTETLTLTCTVSGIDLSHDDISWVRQAPGKGLEWVGIISYAGSTYYASWAKGRLTISKDTSKNQVVLTMTNMDPVDTATYYCARGVPAYSHGGDLWGQGTLVTVSSASTKGPSVFPLAPSSKSTSGGTAALGCLVKDYFPEPVTVSWNSGALTSGVHTFPAVLQSSGLYSLSSVVTVPSSSLGTQTYICNVNHKPSNTKVDKKVEPKSCDKTHTCPPCPAPELLGYPSVFLFPPKPKDTLMISRTPEVTCVVVDVSDEDPEVKFNWYVDGVEVHNAKTKPREELYNSTYRVVSVLTVLHQDWLNGKEYKCKVSNKALPKPIEKTISKAKGQPREPQVYTLPPSREEMTKNQVSLTCLVKGFYPSDIAVEWESNGQPENNYKTTPKVLDSDGSFFLYSKLTVDKSRWQQGNVFSCSVMHEALHNHYTQKSLSLSP light: DIVMTQSPATLSLSPGERATLSCTSSQSVYHANWLSWFQQKPGQPPKLLIYWASTLAYGVPSRFSGSGSGTDFTLTISSLQPEDAATYYCAGGYGGGRYAFGQGTKVEIKRTVAAPSVFIFPPSDEQLKSGTASVVCLLNNFYPREAKVQWKVDNALQSGNSQESVTEQDSKDSTYSLSSTLTLSKADYEKHKVYACEVTHQGLSSPVTKSFNRGEC | 4.2 µM | 0.98 µM
M103205H795-MY143/M103202L889-SK1 (antibody, human IgG1, kappa) heavy: QVTLKESGPVLVKPTETLTLTCTVSGIDLSHDDISWVRQAPGKGLEWVGIISYAGSTYYASWAKGRLTISKDTSKNQVVLTMTNMDPVDTATYYCARGVPAYSHGGDLWGQGTLVTVSSASTKGPSVFPLAPSSKSTSGGTAALGCLVKDYFPEPVTVSWNSGALTSGVHTFPAVLQSSGLYSLSSVVTVPSSSLGTQTYICNVNHKPSNTKVDKKVEPKSCDKTHTCPPCPAPELLSGPSVFLFPPKPKDTLMISRTPEVTCVVVDVSEEDPEVKFNWYVDGVEVHNAKTKPREEQYNSTYRVVSVLTVLHQDWLNGKEYKCKVSNKALPAPIEKTISKAKGQPREPQVYTLPPSREEMTKNQVSLTCLVKGFYPSDIAVEWESNGQPENNYKTTPMVLDSDGSFFLYSKLTVDKSRWQQGNVFSCSVMHEALHNHYTQKSLSLSP light: DIVMTQSPATLSLSPGERATLSCTSSQSVYHANWLSWFQQKPGQPPKLLIYWASTLAYGVPSRFSGSGSGTDFTLTISSLQPEDAATYYCAGGYGGGRYAFGQGTKVEIKRTVAAPSVFIFPPSDEQLKSGTASVVCLLNNFYPREAKVQWKVDNALQSGNSQESVTEQDSKDSTYSLSSTLTLSKADYEKHKVYACEVTHQGLSSPVTKSFNRGEC | 0.28 µM | 0.037 µM
M103205H795-MY142/M103202L889-SK1 (antibody, human IgG1, kappa) heavy: QVTLKESGPVLVKPTETLTLTCTVSGIDLSHDDISWVRQAPGKGLEWVGIISYAGSTYYASWAKGRLTISKDTSKNQVVLTMTNMDPVDTATYYCARGVPAYSHGGDLWGQGTLVTVSSASTKGPSVFPLAPSSKSTSGGTAALGCLVKDYFPEPVTVSWNSGALTSGVHTFPAVLQSSGLYSLSSVVTVPSSSLGTQTYICNVNHKPSNTKVDKKVEPKSCDKTHTCPPCPAPELLEGPSVFLFPPKPKDTLMISRTPEVTCVVVDVSEEDPEVKFNWYVDGVEVHNAKTKPREEQYNSTYRVVSVLTVLHQDWLNGKEYKCKVSNKALPAPIEKTISKAKGQPREPQVYTLPPSREEMTKNQVSLTCLVKGFYPSDIAVEWESNGQPENNYKTTPMVLDSDGSFFLYSKLTVDKSRWQQGNVFSCSVMHEALHNHYTQKSLSLSP light: DIVMTQSPATLSLSPGERATLSCTSSQSVYHANWLSWFQQKPGQPPKLLIYWASTLAYGVPSRFSGSGSGTDFTLTISSLQPEDAATYYCAGGYGGGRYAFGQGTKVEIKRTVAAPSVFIFPPSDEQLKSGTASVVCLLNNFYPREAKVQWKVDNALQSGNSQESVTEQDSKDSTYSLSSTLTLSKADYEKHKVYACEVTHQGLSSPVTKSFNRGEC | 0.14 µM | 0.19 µM
M103205H795-MY219/M103202L889-SK1 (antibody, human IgG1, kappa) heavy: QVTLKESGPVLVKPTETLTLTCTVSGIDLSHDDISWVRQAPGKGLEWVGIISYAGSTYYASWAKGRLTISKDTSKNQVVLTMTNMDPVDTATYYCARGVPAYSHGGDLWGQGTLVTVSSASTKGPSVFPLAPSSKSTSGGTAALGCLVKDYFPEPVTVSWNSGALTSGVHTFPAVLQSSGLYSLSSVVTVPSSSLGTQTYICNVNHKPSNTKVDKKVEPKSCDKTHTCPPCPAPELLGYPSVFLFPPKPKDTLMISRTPEVTCVVVDVSDEDPEVKFNWYVDGVEVHNAKTKPREEQYNSTYRVVSVLTVLHQDWLNGKEYKCKVSNKALPKPIEKTISKAKGQPREPQVYTLPPSREEMTKNQVSLTCLVKGFYPSDIAVEWESNGQPENNYKTTPPVLDSDGSFFLYSKLTVDKSRWQQGNVFSCSVMHEALHNHYTQKSLSLSP light: DIVMTQSPATLSLSPGERATLSCTSSQSVYHANWLSWFQQKPGQPPKLLIYWASTLAYGVPSRFSGSGSGTDFTLTISSLQPEDAATYYCAGGYGGGRYAFGQGTKVEIKRTVAAPSVFIFPPSDEQLKSGTASVVCLLNNFYPREAKVQWKVDNALQSGNSQESVTEQDSKDSTYSLSSTLTLSKADYEKHKVYACEVTHQGLSSPVTKSFNRGEC | 6.2 µM | 2.3 µM
M103205H795-MY228/M103202L889-SK1 (antibody, human IgG1, kappa) heavy: QVTLKESGPVLVKPTETLTLTCTVSGIDLSHDDISWVRQAPGKGLEWVGIISYAGSTYYASWAKGRLTISKDTSKNQVVLTMTNMDPVDTATYYCARGVPAYSHGGDLWGQGTLVTVSSASTKGPSVFPLAPSSKSTSGGTAALGCLVKDYFPEPVTVSWNSGALTSGVHTFPAVLQSSGLYSLSSVVTVPSSSLGTQTYICNVNHKPSNTKVDKKVEPKSCDKTHTCPPCPAPELLGYPSVFLFPPKPKDTLMISRTPEVTCVVVDVSDEDPEVKFNWYVDGVEVHNAKTKPREELYNSTYRVVSVLTVLHQDWLNGKEYKCKVSNKALPKPIEKTISKAKGQPREPQVYTLPPSREEMTKNQVSLTCLVKGFYPSDIAVEWESNGQPENNYKTTPPVLDSDGSFFLYSKLTVDKSRWQQGNVFSCSVMHEALHNHYTQKSLSLSP light: DIVMTQSPATLSLSPGERATLSCTSSQSVYHANWLSWFQQKPGQPPKLLIYWASTLAYGVPSRFSGSGSGTDFTLTISSLQPEDAATYYCAGGYGGGRYAFGQGTKVEIKRTVAAPSVFIFPPSDEQLKSGTASVVCLLNNFYPREAKVQWKVDNALQSGNSQESVTEQDSKDSTYSLSSTLTLSKADYEKHKVYACEVTHQGLSSPVTKSFNRGEC | 9.7 µM | 2.2 µM
M103205H795-MY213/M103202L889-SK1 (antibody, human IgG1, kappa) heavy: QVTLKESGPVLVKPTETLTLTCTVSGIDLSHDDISWVRQAPGKGLEWVGIISYAGSTYYASWAKGRLTISKDTSKNQVVLTMTNMDPVDTATYYCARGVPAYSHGGDLWGQGTLVTVSSASTKGPSVFPLAPSSKSTSGGTAALGCLVKDYFPEPVTVSWNSGALTSGVHTFPAVLQSSGLYSLSSVVTVPSSSLGTQTYICNVNHKPSNTKVDKKVEPKSCDKTHTCPPCPAPELLNGPSVFLFPPKPKDTLMISRTPEVTCVVVDVSDEDPEVKFNWYVDGVEVHNAKTKPREEQYNSTYRVVSVLTVLHQDWLNGKEYKCKVSNKALPKPIEKTISKAKGQPREPQVYTLPPSREEMTKNQVSLTCLVKGFYPSDIAVEWESNGQPENNYKTTPKVLDSDGSFFLYSKLTVDKSRWQQGNVFSCSVMHEALHNHYTQKSLSLSP light: DIVMTQSPATLSLSPGERATLSCTSSQSVYHANWLSWFQQKPGQPPKLLIYWASTLAYGVPSRFSGSGSGTDFTLTISSLQPEDAATYYCAGGYGGGRYAFGQGTKVEIKRTVAAPSVFIFPPSDEQLKSGTASVVCLLNNFYPREAKVQWKVDNALQSGNSQESVTEQDSKDSTYSLSSTLTLSKADYEKHKVYACEVTHQGLSSPVTKSFNRGEC | 1.9 µM | 0.35 µM
M103205H795-MY227/M103202L889-SK1 (antibody, human IgG1, kappa) heavy: QVTLKESGPVLVKPTETLTLTCTVSGIDLSHDDISWVRQAPGKGLEWVGIISYAGSTYYASWAKGRLTISKDTSKNQVVLTMTNMDPVDTATYYCARGVPAYSHGGDLWGQGTLVTVSSASTKGPSVFPLAPSSKSTSGGTAALGCLVKDYFPEPVTVSWNSGALTSGVHTFPAVLQSSGLYSLSSVVTVPSSSLGTQTYICNVNHKPSNTKVDKKVEPKSCDKTHTCPPCPAPELLGYPSVFLFPPKPKDTLMISRTPEVTCVVVDVSDEDPEVKFNWYVDGVEVHNAKTKPREEQYNSTYRVVSVLTVLHQDWLNGKEYKCKVSNKALPKPIEKTISKAKGQPREPQVYTLPPSREEMTKNQVSLTCLVKGFYPSDIAVEWESNGQPENNYKTTPKVLDSDGSFFLYSKLTVDKSRWQQGNVFSCSVMHEALHNHYTQKSLSLSP light: DIVMTQSPATLSLSPGERATLSCTSSQSVYHANWLSWFQQKPGQPPKLLIYWASTLAYGVPSRFSGSGSGTDFTLTISSLQPEDAATYYCAGGYGGGRYAFGQGTKVEIKRTVAAPSVFIFPPSDEQLKSGTASVVCLLNNFYPREAKVQWKVDNALQSGNSQESVTEQDSKDSTYSLSSTLTLSKADYEKHKVYACEVTHQGLSSPVTKSFNRGEC | 3.9 µM | 1.3 µM
M103205H795-MY209/M103202L889-SK1 (antibody, human IgG1, kappa) heavy: QVTLKESGPVLVKPTETLTLTCTVSGIDLSHDDISWVRQAPGKGLEWVGIISYAGSTYYASWAKGRLTISKDTSKNQVVLTMTNMDPVDTATYYCARGVPAYSHGGDLWGQGTLVTVSSASTKGPSVFPLAPSSKSTSGGTAALGCLVKDYFPEPVTVSWNSGALTSGVHTFPAVLQSSGLYSLSSVVTVPSSSLGTQTYICNVNHKPSNTKVDKKVEPKSCDKTHTCPPCPAPELLNGPSVFLFPPKPKDTLMISRTPEVTCVVVDVSDEDPEVKFNWYVDGVEVHNAKTKPREELYNSTYRVVSVLTVLHQDWLNGKEYKCKVSNTALPKPIEKTISKAKGQPREPQVYTLPPSREEMTKNQVSLTCLVKGFYPSDIAVEWESNGQPENNYKTTPPVLDSDGSFFLYSKLTVDKSRWQQGNVFSCSVMHEALHNHYTQKSLSLSP light: DIVMTQSPATLSLSPGERATLSCTSSQSVYHANWLSWFQQKPGQPPKLLIYWASTLAYGVPSRFSGSGSGTDFTLTISSLQPEDAATYYCAGGYGGGRYAFGQGTKVEIKRTVAAPSVFIFPPSDEQLKSGTASVVCLLNNFYPREAKVQWKVDNALQSGNSQESVTEQDSKDSTYSLSSTLTLSKADYEKHKVYACEVTHQGLSSPVTKSFNRGEC | 2.2 µM | 0.57 µM
